B1: Q91Y74 (protein, UniProt Q91Y74 1-333, looked up)
chain: MTSKSHWKLLALALVLVVVMVWYSISREDRYIEFFYFPISEKKEPCFQGEAERQASKIFGNRSREQPIFLQLKDYFWVKTPSTYELPFGTKGSEDLLLRVLAITSYSIPESIKSLECRRCVVVGNGHRLRNSSLGGVINKYDVVIRLNNAPVAGYEGDVGSKTTIRLFYPESAHFDPKIENNPDTLLVLVAFKAMDFHWIETILSDKKRVRKGFWKQPPLIWDVNPKQVRILNPFFMEIAADKLLSLPIQQPRKIKQKPTTGLLAITLALHLCDLVHIAGFGYPDASNKKQTIHYYEQITLKSMAGSGHNVSQEAIAIKRMLEMGAVKNLTYF
modifications: full-length
B2: Q8VHC3 (protein, UniProt Q8VHC3 1-145, looked up)
chain: MSILLSPPSLLLLLAALVAPATSTTNYRPDWNRLRGLARGRVETCGGUQLNRLKEVKAFVTEDIQLYHNLVMKHLPGADPELVLLSRNYQELERIPLSQMTRDEINALVQELGFYRKSAPEAQVPPEYLWAPAKPPEEASEHDDL
modifications: full-length
B3: Q8WUR0 (protein, UniProt Q8WUR0 1-141, looked up)
chain: MPIMVDDIMRLLCSISQERKMKAAVKHSGKGAMVAGAMAFVGGLVGGPPGIAVGGTVGGLLGAWMTSGQFKPVPQILMELPPAEQRKLVNEAMAIIGNLDWTDAVQLTALVMSNQAMQQRLLAMLTTYVTKELQAEIRYED
modifications: full-length
B4: Q8VEE1 (protein, UniProt Q8VEE1 1-365, looked up)
chain: MAKVAKDLNPGVQKMSLGQQQSARGVACLRCKGMCSGFEPHSWRKICKSCKCSQEEHCLSSDLDDDRKIGRLLMDSKYATLTARVKGGDGIRIYKRNRMIMTNPIATGKDPTFDTITYEWAPPGVTQKLGLQYMELIPKERQPVTGTEGALYRRRQLMHQLPIYDQDPSRCRGLVENELKAMEEFVKHYKSEALGVGEVALPGQGGLPKEENKTQEKPEGTETTAPTTNGSLGDPSKEVEYVCELCKGAAPVDSPVVYADRAGYSKQWHPTCFQCIKCSEPLVDLIYFWKDGAPWCGRHYCESVRPRCSGCDEIIFSEDYQRVEDLAWHRKHFICEGCEQLLSGRAYIVTKGQLLCPTCSKSKRS
modifications: full-length
B5: Q8VI93 (protein, UniProt Q8VI93 1-1138, looked up)
chain: MDLFHTPAGALDKLVAHNLHPAPEFTAAVRGALGSLNITLQQHRARGSQRPRVIRIAKGGAYARGTALRGGTDVELVIFLDCFQSFGDQKTCHSETLGAMRMLLESWGGHPGPGLTFEFSQSKASRILQFRLASADGEHWIDVSLVPAFDVLGQPRSGVKPTPNVYSSLLSSHCQAGEYSACFTEPRKNFVNTRPAKLKNLILLVKHWYHQVQTRAVRATLPPSYALELLTIFAWEQGCGKDSFSLAQGLRTVLALIQHSKYLCIFWTENYGFEDPAVGEFLRRQLKRPRPVILDPADPTWDVGNGTAWRWDVLAQEAESSFSQQCFKQASGVLVQPWEGPGLPRAGILDLGHPIYQGPNQALEDNKGHLAVQSKERSQKPSNSAPGFPEAATKIPAMPNPSANKTRKIRKKAAHPKTVQEAALDSISSHVRITQSTASSHMPPDRSSISTAGSRMSPDLSQIPSKDLDCFIQDHLRPSPQFQQQVKQAIDAILCCLREKSVYKVLRVSKGGSFGRGTDLRGSCDVELVIFYKTLGDFKGQKPHQAEILRDMQAQLRHWCQNPVPGLSLQFIEQKPNALQLQLASTDLSNRVDLSVLPAFDAVGPLKSGTKPQPQVYSSLLSSGCQAGEHAACFAELRRNFINTCPPKLKSLMLLVKHWYRQVVTRYKGGEAAGDAPPPAYALELLTIFAWEQGCGEQKFSLAEGLRTILRLIQQHQSLCIYWTVNYSVQDPAIRAHLLCQLRKARPLVLDPADPTWNVGQGDWKLLAQEAAALGSQVCLQSGDGTLVPPWDVTPALLHQTLAEDLDKFISEFLQPNRHFLTQVKRAVDTICSFLKENCFRNSTIKVLKVVKGGSSAKGTALQGRSDADLVVFLSCFRQFSEQGSHRAEIISEIQAHLEACQQMHSFDVKFEVSKRKNPRVLSFTLTSQTLLDQSVDFDVLPAFDALGQLRSGSRPDPRVYTDLIHSCSNAGEFSTCFTELQRDFITSRPTKLKSLIRLVKYWYQQCNKTIKGKGSLPPQHGLELLTVYAWEQGGQNPQFNMAEGFRTVLELIVQYRQLCVYWTINYSAEDKTIGDFLKMQLRKPRPVILDPADPTGNLGHNARWDLLAKEATVYASALCCVDRDGNPIKPWPVKAAV
modifications: full-length
B6: Q920F6 (protein, UniProt Q920F6 1-1248, looked up)
chain: MGHLELLLVENFKSWRGRQVIGPFKRFTCIIGPNGSGKSNVMDALSFVMGEKTTNLRVKNIQELIHGAHTGKPVSSSASVTIIYIEDSGEEKTFTRIIRGGCSEYHFGDKPVSRSVYVAQLENIGIIVKAQNCLVFQGTVESISMKKPKERTQFFEEISTSGEFIGEYEAKKKKLQKAEEDAQFHFNVKKNVAAERKHAKIEKEEAEHYQNLLEELKINKIQLMLFQLYYNEEKINVLNTELEQMDGNLSVVKDTLSHHENIFKAKKKDYGMLTRQLQQTAKELKSVEAILNQKRPQYIKAKENTSHHLKKLDLSKKLITDNEKQCSKQEDGIRALVAELADLDRAWKSFEKQMEEKILQKGRDIELENSQLDRYKLLKEQVRRKVGIMTQQLEKLQWEQKAEKERLAFEKRRHGDTQGNLKQIKEQIEEHKKRIEKLEEYTKTCMDCLEDKKQQEEALKKEIENTKSRMSEVNEELSLIRNELQNAGIDNHEGKRQQKRAEVLEHLKRLYPDSVFGRLLDLCHPIHKKYQLAVTKLFGRYMVAIVVASEKIAKDCIRFLKAERAEPETFLALDYLDIKPINERLREIKGCKMMIDVIKTQFPQLKKVIQFVCGNGLVCETVEEARHIAFGGPERRKAVALDGTLFLKSGVISGGSSDLKHKALCWDEKELHNLRDKRSQLVQELKELMKTLRKETDLKQIQTLVQGTNTRLKYSQNELEMIKKKHLATFYREQSQLQSELLNIDSQCTMLSEGINKQQQKIEEFQDKIDEVEDDIFQDFCEEIGVENIREFENKHVKQQQENDQKRLEFEKQKTRLNIQLEYSRNQLKKKLNNIDTLKTTIQKGKEDIDNLKKTEEECLKIVEELMVKQEQIKEVLATQSSNIEKIHIQIEEERKKVLAVDREVGKLQKEVVIIQGSLEQKLLEKHNLLLDCKVQDIDISLVLGSLEDIIEMELTETESTQATADIYEKEASIQIDYSPLREDLKALQSDKEVEAHLTLLLQQVASQENTLLKTTAPNLRAQENLKTVRDKFQESADVFEASRKEARICRQEFEQVKRRRYDAFSQCFEHISVSIDQIYKKLCRNNSAQAFLSPENPEEPYLDGISYNCVAPGKRFMPMDNLSGGEKCVAALALLFAVHSFRPAPFFVLDEVDAALDNTNIGKVSSYIKEQSQEQFQMIIISLKEEFYSKADALIGVYPEHNECMFSHVLTLDLSKYPDTEDQEGSRSHRKPRVPRVSMSPKSPQSR
modifications: full-length
B7: Q8VE33 (protein, UniProt Q8VE33 1-370, looked up)
chain: MATPNNLTPTNCSWWPISALESDAAKPVETPDAPEASSPAHWPKESLVLYHWTQSFSSQKRLQVRLVIAEKGLACEERDVSLPQSEHKEPWFMRLNLGEEVPVIIHRDNIISDYDQIIDYVERTFTGEHVVALMPEAGSPQHARVLQYRELLDALPMDAYTHGCILHPELTTDSMIPKYATAEIRRHLANATTDLMKLDHEEEPQLSEPYLSKQKKLMAKILEHDDVSYLKKILGELAMVLDQIEAELEKRKLENEGQTCELWLCGCAFTLADVLLGATLHRLKFLGLSKKYWEDGSRPNLQSFFERVQRRFAFRKVLGDIHTTLLSAVIPNAFRLVKRKPPSFFGASFLMGSLGGMGYFAYWYLKKKYI
modifications: full-length
B8: Q91WU0 (protein, UniProt Q91WU0 1-561, looked up)
chain: MFLSTLFLVSLATCVICGNPSSPPVVDTAHGKVLGKHVNVEGFSQPVAVFLGIPFAKPPLGSLRFAPPQPAEPWSSVKNATTYPPMCSQDAARGQAVNDLITNRKEKIHLEFSEDCLYLNIYTPADFSKNSRLPVMVWIHGGGLKLGGASSFDGRALSAYENVVVVAIQYRLSIWGFFSTGDEHSRGNWGHLDQVAALHWVQDNIANFGGDPGSVTIFGESAGGYSVSILILSPLSKNLFHRAISESGVAFIPGMFTKDVRPITEQIAVTAGCKTTTSAVIVHCMRQKTEEELLEIMHKLNLYKLSLQGDTKNSDQFVTSVLDGVVLPKDPKEILAEKNFNTVPYIVGINKQECGWLLPTMTGFLPADVKLDKKKAIALLEQFASMTGIPEDIIPVAVEKYTKGSDDPDQIREGVLDAMGDVAFGVPSVIVSRGHRDTGAPTYMYEYQYYPSFSSPQRPKNVVGDHADDVYSVFGAPILREGASEEEINLSKMVMKFWANFARNGNPNGKGLPHWPKYDQKEGYLHIGGTTQQAQRLKEEEVTFWTQSLAKKQPQPYHNEL
modifications: full-length

Test system: intracellular proteome of ENR+CD and ENR organoids
Assay: LC-MS/MS TMT proteomics of ENR+CD versus ENR organoids
Format: cell-based, C57BL/6 mice
Conditions: for Average logFC: ENR+CD versus ENR organoids, sample pairs in aggregate (n=4, 2 technical replicates from two biological donors); for M1-1 Log2 Median Normalized / M1-2 Log2 Median Normalized / M2-1 Log2 Median Normalized / M2-2 Log2 Median Normalized: protein abundance ratio ENR+CD versus ENR organoids, LC-MS/MS TMT proteomics; for M1-1 Log2 Median Normalized: sample pair M1-1; for M1-2 Log2 Median Normalized: sample pair M1-2; for M2-1 Log2 Median Normalized: sample pair M2-1; for M2-2 Log2 Median Normalized: sample pair M2-2; for change: up = enriched in ENR+CD, down = enriched in ENR, FDR<0.05 and log fold change cut-off

| Molecule | Average logFC | M1-1 Log2 Median Normalized | M1-2 Log2 Median Normalized | M2-1 Log2 Median Normalized | M2-2 Log2 Median Normalized | change |
| --- | --- | --- | --- | --- | --- | --- |
| B1 | −1.232 | −0.783 | −1.258 | −1.9425 | −0.946 | down |
| B2 | 1.481 | 1.688 | 1.48 | 1.1495 | 1.521 | up |
| B3 | −1.514 | −0.949 | −1.798 | −1.4995 | −1.811 | down |
| B4 | −1.258 | −1.327 | −1.525 | −1.0345 | −1.145 | down |
| B5 | 1.461 | 1.378 | 0.979 | 1.6325 | 1.853 | up |
| B6 | −1.932 | −1.931 | −0.989 | −2.1915 | −1.967 | down |
| B7 | 1.453 | 2.102 | 0.932 | 1.1705 | 1.609 | up |
| B8 | −1.598 | −1.5 | −1.991 | −2.4445 | −0.456 | down |
